Experiments:
[1] = system: P. aeruginosa (6077 exoU+; 6206) lysis of rabbit red blood cells; assay: Rabbit red blood cell (RBC) lysis inhibition assay; type: cell-based, Pseudomonas aeruginosa; details: FIG. 12F
Protocol: Percent inhibition of cytotoxicity analysis was analysed for the parental V2L2 mAb, mAb166 (positive control) and R347 (negative control), where the antibodies were administered to cultured broncho-epithelial cell line A549 combined with log-phase P. aeruginosa strain 6077 (exoU+) at a MOI of approximately 10. A549 lysis was assayed by measuring released lactate dehydrogenase (LDH) activity and lysis in the presence of mAbs was compared to wells without mAb to determine percent inhibition. The V2L2 mAb, mAb166 (positive control) and R347 (negative control) were evaluated for their ability to prevent lysis of RBCs, where the antibodies were mixed with log-phase P. aeruginosa 6077 (exoU^+) and washed rabbit red blood cells (RBCs) and incubated for 2 hours at 37°. Intact RBCs were pelleted and the extent of lysis determined by measuring the OD405 of the cell-free supernatant. Lysis in the presence of anti-PcrV mAbs was compared to wells without mAb to determine percent inhibition. The positive control antibody, mAb166, is a previously characterized anti-PcrV antibody (J Infect Dis. 186: 64-73 (2002), Crit Care Med. 40: 2320-2326 (2012)).

[2] = system: P. aeruginosa strains (PAO1, 33356, 6294, 6077, 6206, PA103A); assay: Acute pneumonia model in mice, survival; type: in vivo, Pseudomonas aeruginosa
Protocol: (§1) Antibodies or PBS were administered 24 hours before infection in each model. P. aeruginosa acute pneumonia, keratitis, and thermal injury infection models were performed as described (DiGiandomenico, A., et al., Proc Natl Acad Sci USA 104, 4624-4629 (2007)), with modifications. In the acute pneumonia model, BALB/c mice (The Jackson Laboratory) were infected with P. aeruginosa strains suspended in a 0.05 ml inoculum. In the thermal injury model, CF-1 mice (Charles River) received a 10% total body surface area burn with a metal brand heated to 92° C. for 10 seconds. Animals were infected subcutaneously with P. aeruginosa strain 6077 at the indicated dose. For organ burden experiments, acute pneumonia was induced in mice followed by harvesting of lungs, spleens, and kidneys 24 hours post-infection for determination of CFU.
The in vivo effect of administration of an anti-PcrV antibodies was studied in mice using an acute pneumonia model. Groups of mice were treated with either increasing concentrations of the V2L2 antibody, a positive control anti-PcrV antibody (mAb166), or a negative control (R347), as shown in FIG. 13 (A-B). Groups of mice were also treated with either increasing concentrations of the V2L2 antibody, the PcrV antibody PcrV-02, or a negative control (R347), as shown in FIG. 13 (C-D). Twenty-four hours after treatment, all mice were infected with 5×10^7 CFU (C) Pseudomonas aeruginosa 6294 (06) or (D) PA103A (O11).
Groups of mice were treated with either increasing concentrations of the 11A6, 3G5 or V2L7, the same concentrations of 29D2, 1F3, 1E6, V2L2, LE10, SH3, 4A8, 2H3, or 21F1, increasing concentrations of the 29D2, increasing concentrations of the V2L2, the PcrV antibody PcrV-02, or a negative control (R347), as shown in FIG. 13 (E-H). Mice were injected intraperitoneally (IP) with mAbs 24 hours prior to intranasal infection with Pseudomonas strain 6077 (1×10^6 CFU/animal).

[3] = system: P. aeruginosa strains 6206 and 6294; assay: Acute pneumonia model in mice, histological examination of lung tissue; type: in vivo, Pseudomonas aeruginosa
[4] = system: P. aeruginosa strains (PAO1, 33356, 6294, 6077, 6206); assay: Acute pneumonia model in mice, organ burden (CFU in lung, spleen, kidneys); type: in vivo, Pseudomonas aeruginosa
Protocol: as §1
Organ burden of Pseudomonas-infected mice was also studied in response to administration of V2L2. FIG. 14 (A) Mice were treated with either 1 mg/kg R347 (control), or 1 mg/kg, 0.2 mg/kg, or 0.07 mg/kg of V2L2 and then were infected intranasally with 1.2×10^6 cfu of Pseudomonas 6206. FIG. 14 (B) Mice were also treated with either 15 mg/kg R347 (negative control); 15.0 mg/kg, 5.0 mg/kg, or 1.0 mg/kg mAb166 (positive control); or 5.0 mg/kg, 1.0 mg/kg, or 0.2 mg/kg V2L2 and then were infected intranasally with 5.5×10^6 cfu of Pseudomonas 6206.
The in vivo effect of combination administration of anti-Psl and anti-PcrV binding domains was further studied in mice using the antibodies V2L2 and WapR-004 (RAD). Groups of mice were treated with R347 (2.1 mg/kg—negative control), V2L2 (0.1 mg/kg), W4-RAD (0.5 mg/kg), or V2L2/W4 combination (either 0.1, 0.5, 1.0 or 2.0 mg/kg each). Twenty-four hours post-administration of antibody, all mice were infected with an inoculum containing 5.25×10^5 cfu 6206 (O11-ExoU+). Twenty-four hours post infection, lungs, spleens, and kidneys were harvested, homogenized, and plated for colony forming unit (CFU) identification per gram of tissue.

[5] = Table 5, 6206 5.25×10^5 cfu, R347 2.1 mg/kg, V2L2 0.1 mg/kg, WapR-004 0.5 mg/kg
[6] = Table 6A, strain 6294 1.33×10^7 CFU, 0.2 mg/kg (combination 0.1 mg/kg ea)
[7] = Table 6B, strain 6294 1.7×10^7 CFU, 0.2 mg/kg (combination 0.1 mg/kg ea)
[8] = Table 7, strain 6206 9.25×10^5 CFU, 0.2 mg/kg (combination 0.1 mg/kg ea)
[9] = strain 6206 intranasal, V2L2 0.07-5 mg/kg, FIG. 14A-B

B1: V2L2: anti-PcrV monoclonal antibody; VH SEQ ID NO:216, VL SEQ ID NO:217 (antibody, V domains shown)
VH: EMQLLESGGGLVQPGGSLRLSCAASGFTFSSYAMNWVRQAPGEGLEWVSAITISGITAYYTDSVKGRFTISRDNSKNTLYLQMNSLRAGDTAVYYCAKEEFLPGTHYYYGMDVWGQGTTVTVSS
VL: AIQMTQSPSSLSASVGDRVTITCRASQGIRNDLGWYQQKPGKAPKLVIYSASTLQSGVPSRFSGSGSGTDFTLSISSLQPDDFATYYCLQDYNYPWTFGQGTKVEIK
modifications: V2L2 VH; V2L2 VL
For B1, the “potency in prevention of RBC lysis, V2L2 vs 29D2” value [1] was “more potent in prevention of RBC lysis than the 29D2”, the survival ([2]; 6206, Bs3-V2L2 0.28 mg/kg, V2L2 0.2 mg/kg, monitored 120 hours, FIG. 21A) was “survived” and the “protection against additional strains” value ([2]; 6294 and PA103A, 0.04-5 mg/kg, FIG. 13I) was “protects against additional Pseudomonas strains (i.e., 6294 and PA103A)”. The survival ([2]; increasing concentrations 24 hours before infection, strains 6077, 6294, PA103A, FIG. 13A-D) was “dose-dependent effect on improved survival even out to 168 hours post-infection”, the “protection compared to mAb166” value ([2]; similar doses, strains 6077 and 6294, FIG. 13A-B) was “significantly more potent protection than mAb166 at similar doses” and the protection in vivo ([2]; strain 6077 (1×10^6 CFU/animal) intranasal, mAbs IP 24 hours prior, 11A6, 3G5, V2L7 5 or 1 mg/kg, 29D2 and V2L2 25 mg/kg, FIG. 13E-G) was “provides protection in vivo”. For the same molecule, the “Inflammatory Infiltrate” value [3, 5] was “PMN 3+”, the “Involved Lung Surface Area” value [3, 5] was 55% and the “Overall Impression” value [3, 5] was “Broncho interstitial pneumonia”. The “Overall Impression” value ([3]; Table 6A, BALB/c mice, strain 6294 1.33×10^7 CFU, 0.2 mg/kg (combination 0.1 mg/kg ea)) was “Broncho interstitial pneumonia”, the Bacteria [3, 6] was “Neg-1+” and the “Hemorrhage (extent)” value [3, 6] was “Extensive”. The “Inflammatory Infiltrate” value [3, 6] was “PMN 3+”, the “Involved Lung Surface Area” value [3, 6] was “(57%), mild epithelial injury,” and the “Overall Impression” value ([3]; Table 6B, BALB/c mice, strain 6294 1.7×10^7 CFU, 0.2 mg/kg (combination 0.1 mg/kg ea)) was “Broncho interstitial pneumonia”. For the same molecule, the Bacteria [3, 7] was “Neg”, the “Inflammatory Infiltrate” value [3, 7] was “PMN 2+” and the “Involved Lung Surface Area” value [3, 7] was “(30%), mild epithelial injury,”. For the same molecule, the “Overall Impression” value ([3]; Table 7, BALB/c mice, strain 6206 9.25×10^5 CFU, 0.2 mg/kg (combination 0.1 mg/kg ea)) was “Broncho interstitial pneumonia”, the “Inflammatory Infiltrate” value [3, 8] was “PMN 2-3+” and the “Involved Lung Surface Area” value [3, 8] was “(40%), mild epithelial injury,”. For the same molecule, the organ burden ([4]; 6206 (O11-ExoU+) 5.25×10^5 cfu, V2L2 0.1 mg/kg, W4-RAD 0.5 mg/kg, FIG. 15) was “effective in lowering organ burden”, the “reduction in organ CFU compared to mAb166” value ([4]; strain 6206, similar doses, FIG. 14B) was “significantly greater reduction in organ CFU than mAb166 at similar doses” and the “clearance in the kidney” value [4, 9] was “little effect on clearance in the kidney”. The “dissemination to lung and spleen” value [4, 9] was “greatly reduced dissemination to both the lung and spleen in a dose-dependent manner”.
